{"source": "paper PMC3098285", "target": "T1, His-PhoP (Salmonella enterica serovar Typhimurium (strain SL1344?)) (UniProt E1WFA1)", "T1 sequence": "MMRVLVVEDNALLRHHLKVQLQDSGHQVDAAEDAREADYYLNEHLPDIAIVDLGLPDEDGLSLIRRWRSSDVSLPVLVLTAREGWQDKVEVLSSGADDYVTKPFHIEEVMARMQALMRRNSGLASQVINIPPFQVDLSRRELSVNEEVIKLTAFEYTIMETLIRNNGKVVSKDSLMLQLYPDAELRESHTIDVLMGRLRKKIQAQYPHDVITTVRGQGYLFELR", "test": "EMSA", "settings": "20 mM HEPES pH 7.6, 1 mM EDTA, 10 mM (NH4)2SO4, 5 mM DTT, 0.2% Tween 20, 30 mM KCl, 0.1 ug poly-L-lysine, 1 ug poly(dI-dC), 50 mM acetyl phosphate, 37 C …"}
{"sequence": "CGCTCACCTCTTCTGTATATAAGCTGTGAAATTGCGGTATGCTCAATCGGTAAAGTGAATTTACACATATATTCATTTTGCTCTGTTTCCTGGTAAGTGAAAGTAGCGAATATGATGTAATGTATAATT (double strand) [sseL promoter 128-bp fragment]", "values": [{"measurement": "binding", "result": "binds"}]}
